Positions count from the first letter of the chain named. Names may count otherwise.
Legend:
[1] = target: T1, cynomolgus monkey soluble IL-6R (from cynomolgus monkey serum) (cynomolgus monkey, UniProt P08887 20-365 (human entry)); assay: ratio of gp130 ELISA IC50s on human and cynomolgus sIL-6R
T1 construct: Natural soluble IL-6R present in diluted normal cynomolgus monkey serum; also called cyno IL6R; cynomolgous sIL-6R
T1 chain: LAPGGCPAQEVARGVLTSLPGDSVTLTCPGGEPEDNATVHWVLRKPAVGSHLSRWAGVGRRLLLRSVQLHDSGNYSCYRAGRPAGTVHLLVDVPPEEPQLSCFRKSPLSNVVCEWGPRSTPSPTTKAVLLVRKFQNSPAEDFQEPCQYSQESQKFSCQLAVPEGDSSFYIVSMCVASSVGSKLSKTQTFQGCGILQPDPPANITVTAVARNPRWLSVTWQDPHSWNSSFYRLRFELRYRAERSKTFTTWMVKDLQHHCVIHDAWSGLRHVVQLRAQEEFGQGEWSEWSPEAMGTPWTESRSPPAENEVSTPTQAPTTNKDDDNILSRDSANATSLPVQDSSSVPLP
Protocol: (§1) The standard anti-cynomolgus monkey IL-6R gp130 ELISA assay detailed under ‘Potency, neutralisation and inhibition’ above was performed to assay the ICVDs in parallel for their ability to neutralise sIL6R in cynomolgous monkey serum and recombinant purified human sIL6R. Briefly, Maxisorp 96-well plates were coated overnight with 50 μl/well 1 μg/ml gp130 then blocked. ICVDs were serially diluted and mixed 1:1 with 200 ng/ml recombinant human IL-6, then 1:1 with either 20 ng/ml recombinant human sIL-6R or a 5-fold dilution of cynomolgus monkey serum and incubated for 1 hour to allow binding before adding to the gp130-coated plates. Bound cynomolgus monkey IL-6R was detected with 50 μl/well either 0.25 μg/ml (for human IL-6R) or 0.5 μg/ml (for monkey serum) BAF227 and then 50 μl/well 1/1000 Extravidin-HRP and the level of neutralisation by the ICVD of IL-6R binding to IL-6/gp130 was determined

[2] = target: T1, cynomolgus monkey soluble IL-6R (from …); assay: anti-cynomolgus IL-6R gp130 ELISA (competition): 10x diluted cynomolgus serum, 50 ng/mL human IL-6, coated human gp130
Protocol: as §1

[3] = target: T2, recombinant soluble human IL-6R (human, UniProt P08887 20-365); assay: gp130 ELISA (competition), parallel human arm: 10 ng/mL human IL-6R, 50 ng/mL human IL-6
T2 construct: also called sIL-6R; shIL-6R
T2 sequence: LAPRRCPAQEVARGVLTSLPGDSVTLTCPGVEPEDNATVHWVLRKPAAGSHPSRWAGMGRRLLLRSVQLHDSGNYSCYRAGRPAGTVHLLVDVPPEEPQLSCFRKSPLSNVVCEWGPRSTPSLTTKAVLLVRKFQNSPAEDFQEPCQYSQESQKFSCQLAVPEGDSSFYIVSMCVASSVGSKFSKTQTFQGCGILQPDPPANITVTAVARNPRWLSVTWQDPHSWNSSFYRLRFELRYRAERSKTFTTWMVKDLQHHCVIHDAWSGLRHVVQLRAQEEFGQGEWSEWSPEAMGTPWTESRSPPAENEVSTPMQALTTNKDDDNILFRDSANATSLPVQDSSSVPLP
Protocol: as §1

[4] = target: T2, recombinant soluble human IL-6R; assay: gp130 ELISA (competition): inhibition of human sIL-6R/IL-6 complex binding to coated gp130; 20 ng/mL IL6R, 100 ng/mL IL6
Protocol: Briefly, Maxisorp 96-well plates were coated overnight with 50 μl/well 0.5 μg/ml gp130 then blocked. ICVDs were serially diluted and mixed 1:1 with 100 ng/ml recombinant human IL-6 then 1:1 with 40 ng/ml recombinant human sIL-6R, and incubated for 1 hour to allow binding before adding to the gp130-coated plates. Bound IL-6R was detected with 50 μl/well 0.250 μg/ml BAF227 and then 50 μl/well 1/1000 diluted Extravidin-HRP and the level of neutralisation by the ICVD of IL-6R binding to IL-6/gp130 was determined.
Dose response curves were obtained (dose response curves of particular ICVDs illustrated in FIG. 1). […] This was confirmed with curve-fitting software (Graphpad Prism), which fitted 4 parameter curves to the data and calculated the IC50s (Table 4.1, below).

[5] = target: T3, membrane-bound human IL-6R on TF-1 cells (human, UniProt P08887 20-468); assay: cell-based or functional assay
T3 sequence: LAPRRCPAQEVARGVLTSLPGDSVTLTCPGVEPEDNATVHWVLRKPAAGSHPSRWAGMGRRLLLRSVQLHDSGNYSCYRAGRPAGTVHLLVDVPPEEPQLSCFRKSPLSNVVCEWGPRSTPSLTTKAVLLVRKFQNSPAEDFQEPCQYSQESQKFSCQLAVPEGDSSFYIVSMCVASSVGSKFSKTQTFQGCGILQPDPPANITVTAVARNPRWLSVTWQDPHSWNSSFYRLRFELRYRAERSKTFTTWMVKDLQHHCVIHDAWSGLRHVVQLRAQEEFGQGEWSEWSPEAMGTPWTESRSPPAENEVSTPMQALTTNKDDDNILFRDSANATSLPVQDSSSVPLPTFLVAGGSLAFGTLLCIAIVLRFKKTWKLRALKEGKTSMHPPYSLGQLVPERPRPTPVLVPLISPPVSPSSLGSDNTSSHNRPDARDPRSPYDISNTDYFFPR

[6] = target: T2, recombinant soluble human IL-6R; assay: standard gp130 ELISA (competition), Experiment 2; 10 ng/mL IL-6R, 50 ng/mL IL-6
Protocol: The inhibitory potency and efficacy (maximal inhibition) of the E. coli-produced 5G9 derivatives were confirmed in vitro in the gp130 ELISA, TF-1 cell and M1 cell functional assays measuring responses mediated via human IL-6R. The gp130 assays follow the standard protocol with a final assay concentration of 10 ng/mL IL-6R and 50 ng/mL IL-6.

[7] = target: T3, membrane-bound human IL-6R on TF-1 cells; assay: cell-based or functional assay; remark: listed apart in the source
[8] = target: T2, recombinant soluble human IL-6R; assay: standard gp130 ELISA (competition); column 'Potency'
[9] = target: T3, membrane-bound human IL-6R on TF-1 cells; assay: cell-based or functional assay; remark: listed apart in the source
[10] = target: T2, recombinant soluble human IL-6R; assay: standard gp130 ELISA (competition); 10 ng/mL IL-6R, 50 ng/mL IL-6; column 'Potency'
Protocol: Mutant 5G9 sequences were produced and tested for their potency in the standard gp130 ELISA. The standard gp130 ELISA has a final assay concentration of 10 ng/mL IL-6R and 50 ng/mL IL-6.

[11] = target: T2, recombinant soluble human IL-6R; assay: standard gp130 ELISA (competition); reference 5G9
[12] = target: T2, recombinant soluble human IL-6R; assay: cell-based or functional assay

B1: 3C12 (VHH)
VHH: EVQLVESGGGLAQLGGSLRLSCVASGNIFSSNTAGWFRQAPGKQREWVAGISIGGMPAYADSVKGRFTISRDNAKNTVYLQMNSLKPEDTAVYYCATGGTEYDYWGQGTQVTVSS
notes: Llama ICVD from library 37-3, produced in E. coli; also called VIL-3C12; not shown: C-terminal Flag and 6xHis tags from vector pMEK222
Ratio Cyno IC50/human IC50 (title: human IC50 divided by cynomolgous IC50) [1]: 0.9 | IC50 [2]: 4.14 nM | IC50 [3]: 3.53 nM | IC50 [4]: 1.89 nM | IC50 of inhibition of IL-6-induced TF-1 cell proliferation [5]: 44.6 nM

B2: 20A11 (prior art comparative example) (VHH)
VHH: EVQLVESGGGLVQPGGSLRLSCAASGSVFKINVMAWYRQAPGKGRELVAGIISGGSTSYADSVKGRFTISRDNAKNTLYLQMNSLRPEDTAVYYCAFITTESDYDLGRRYWGQGTLVTVSS
notes: Prior art anti-IL-6R polypeptide disclosed in WO 2010/115998; also called PMP20A11
Ratio Cyno IC50/human IC50 (title: human IC50 divided by cynomolgous IC50) [1]: 2.3 | IC50 [2]: 0.106 nM | EC50 [6]: 0.22 nM | TF-1 cell assay EC50 (5 ng/ml IL-6) [7]: 0.56 nM | IC50 [3]: 0.24 nM | IC50 of inhibition of IL-6-induced TF-1 cell proliferation [5]: 1.1 nM

B3: ID-3V (VHH)
VHH: EVQLVESGGGLVQAGGSTRLTCLASGSISSINVIGWYRQAPGKQRELVAMIGRGEGANYGDFAKGRFTISRDNSKNTVYLQMNSLKPEDTAVYYCYADYEDHDSPFNGSWGQGTQVTVSS
notes: Mutant of 7F6; also called 7F6 + R102H; not shown: C-terminal Flag- and His-tags of E. coli constructs
IC50 [8]: 0.16 nM

B4: ID-40V (VHH)
VHH: B3 VHH with F106H
notes: Mutant of 7F6; also called 7F6 + R102H, F106H; not shown: C-terminal Flag- and His-tags of E. coli constructs
IC50 [8]: 0.21 nM

B5: ID-6V (VHH)
VHH: B3 VHH with H102R, F106H
notes: Mutant of 7F6; also called 7F6 + F106H; not shown: C-terminal Flag- and His-tags of E. coli constructs
IC50 [8]: 0.22 nM

B6: ID-49V (VHH)
VHH: B3 VHH with H102R, F106T
notes: Mutant of 7F6; also called 7F6 + F106T; not shown: C-terminal Flag- and His-tags of E. coli constructs
IC50 [8]: 0.31 nM

B7: ID-47V (VHH)
VHH: B3 VHH with H102R, F106I
notes: Mutant of 7F6; also called 7F6 + F106I; not shown: C-terminal Flag- and His-tags of E. coli constructs
IC50 [8]: 0.27 nM

B8: ID-50V (VHH)
VHH: B3 VHH with H102R, F106V
notes: Mutant of 7F6; also called 7F6 + F106V; not shown: C-terminal Flag- and His-tags of E. coli constructs
IC50 [8]: 0.24 nM

B9: 5G9 (VHH)
VHH: EVQLVESGGGLVQAGGSTRLTCKASGSIFNINSINVMAWYRQAPGKQRELVAIIGKGGGTNYADFVKGRFTISRDAAKNTVNLQMNSLKPEDTAVYYCYADYEDRDSPFNASWGQGTQVTVSS
notes: also called VIL-5G9; 'Wild type' 5G9; not shown: C-terminal Flag and 6xHis tags from vector pMEK222
Potency in the TF-1 assay [9]: 0.23 not printed (nM in the filing's other TF-1 tables) | Ratio Cyno IC50/human IC50 (title: human IC50 divided by cynomolgous IC50) [1]: 0.2 | IC50 [2]: 0.804 nM | IC50 [10]: 0.09 nM | IC50 [3]: 0.148 nM | IC50 [4]: 0.16 nM | IC50 of inhibition of IL-6-induced TF-1 cell proliferation [5]: 0.9 nM

B10: ID-52V (VHH)
VHH: B9 VHH with R105H, F109H
notes: Mutant of 5G9; also called 5G9 + F109H, R105H; not shown: C-terminal Flag- and His-tags of E. coli constructs
IC50 [10]: 0.24 nM

B11: ID-57V (VHH)
VHH: B9 VHH with F29I
notes: Mutant of 5G9; also called 5G9 + F29I; not shown: C-terminal Flag- and His-tags of E. coli constructs
fold increase of IC50 against 5G9 [11]: ~3 fold | IC50 [10]: 0.31 nM

B12: ID-122V (VHH)
VHH: B9 VHH with F29S, Q47G, K89R, R105H, F109H
notes: E. coli-produced trans-selective 5G9 derivative; also called 5G9 + F29S, Q47G, K89R, R105H, F109H; not shown: C-terminal FLAG-6xHis
EC50 [6]: 0.489 nM | M1 cellular assay EC50 (20 ng/ml IL-6R, 100 ng/ml IL-6) [12]: 3.96 nM

B13: ID-53V (VHH)
VHH: B9 VHH with F109H
notes: Mutant of 5G9; also called 5G9 + F109H; not shown: C-terminal Flag- and His-tags of E. coli constructs
Potency in the TF-1 assay [9]: 17.5 not printed (nM in the filing's other TF-1 tables) | IC50 [10]: 0.3 nM

B14: ID-59V (VHH)
VHH: B9 VHH with Y62D
notes: Mutant of 5G9; also called 5G9 + Y62D; not shown: C-terminal Flag- and His-tags of E. coli constructs
IC50 [10]: 0.11 nM

B15: ID-55V (VHH)
VHH: B9 VHH with K23H
notes: Mutant of 5G9; also called 5G9 + K23H; not shown: C-terminal Flag- and His-tags of E. coli constructs
IC50 [10]: 0.11 nM

B16: ID-56V (VHH)
VHH: B9 VHH with F29S
notes: Mutant of 5G9; also called 5G9 + F29S; not shown: C-terminal Flag- and His-tags of E. coli constructs
IC50 [10]: 0.07 nM

B17: ID-54V (VHH)
VHH: B9 VHH with R105H
notes: Mutant of 5G9; also called 5G9 + R105H; not shown: C-terminal Flag- and His-tags of E. coli constructs
Potency in the TF-1 assay [9]: 0.31 not printed (nM in the filing's other TF-1 tables) | IC50 [10]: 0.15 nM

B18: 4D3 (VHH)
VHH: EVQLVESGGGSVQAGESLTLSCVASISTFSQNAMGWFRQAAGKRRESVARISSSGNVGYTDAVKGRFTMSRDNAKKTVYLQMNSLKPEDTAVYYCNAYSMSGELAAPWGQGTQVTVSS
notes: Llama ICVD from library 46-3, produced in E. coli; also called VIL-4D3; not shown: C-terminal Flag and 6xHis tags from vector pMEK222
Ratio Cyno IC50/human IC50 (title: human IC50 divided by cynomolgous IC50) [1]: 1.9 | IC50 [2]: 0.372 nM | IC50 [3]: 0.691 nM | IC50 [4]: 0.66 nM | IC50 of inhibition of IL-6-induced TF-1 cell proliferation [5]: 26 nM

From patent publication US20220380475A1 (SORRISO PHARMACEUTICALS, published 2022)
